Article PMC7704496, “RNA and DNA Binding Epitopes of the Cold Shock Protein TmCsp from the Hyperthermophile Thermotoga maritima”

Legend:
Settings in all cases: protein: recombinant; tags: none stated; chain copies: 2; label: none (5'-fluorescein in EMSA); single strand
[1] = target: T1, TmCsp (cold shock protein) (Thermotoga maritima, UniProt O54310 1-66); test: Trp fluorescence quenching; 303 K; EMSA: 50 mM NaH2PO4 pH 6.5, 20 mM NaCl, 0.2 mM EDTA, room temperature 1 h, 20% gel in 1xTBE at 4 C; NMR: 50 mM sodium phosphate pH 6.5, 20 mM NaCl, 0.2 mM EDTA
[2] = target: T1, TmCsp (cold shock protein); test: Trp fluorescence quenching; 343 K; EMSA: 50 mM NaH2PO4 pH 6.5, 20 mM NaCl, 0.2 mM EDTA, room temperature 1 h, 20% gel in 1xTBE at 4 C; NMR: 50 mM sodium phosphate pH 6.5, 20 mM NaCl, 0.2 mM EDTA
[3] = target: T1, TmCsp (cold shock protein); test: Trp fluorescence quenching; 323 K; EMSA: 50 mM NaH2PO4 pH 6.5, 20 mM NaCl, 0.2 mM EDTA, room temperature 1 h, 20% gel in 1xTBE at 4 C; NMR: 50 mM sodium phosphate pH 6.5, 20 mM NaCl, 0.2 mM EDTA

T1 sequence (O54310 whole entry): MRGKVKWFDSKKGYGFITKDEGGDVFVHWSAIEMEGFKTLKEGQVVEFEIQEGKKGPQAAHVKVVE

Binder | Kd [1] | Kd [2] | Kd [3]
AAAAAAA (ssDNA) [(dA)7] | 5000 ± 200 nM | – | –
CCCCCCC (ssDNA) [(dC)7] | 2800 ± 100 nM | 11000 ± 100 nM | –
GGGGGGG (ssDNA) [(dG)7] | 3400 ± 100 nM | 5600 ± 100 nM | –
UUUUUUU (ssRNA) [(rU)7] | 10.8 ± 0.8 nM | 17400 ± 100 nM | 1520 ± 10 nM
TTTTTTT (ssDNA) [(dT)7] | 4 ± 0.2 nM | 1600 ± 40 nM | 440 ± 20 nM
